Test results reported in publication PMC9482650, “Quantitative fragmentomics allow affinity mapping of interactomes” (Nature Communications, 2022).

Columns and labels:
Test in all cases: holdup assay
Parameters in all cases: key: below the threshold = too weak to quantify, mostly under pKd 3.1 to 4
Settings in all cases: plain residues with an end cap or a label only (N-terminal biotin on a linker: ado-ado)
SNTG1, Q9NSN8 = biological target: T1, SNTG1, Q9NSN8
T1 sequence (Q9NSN8 52-150, limits assumed, looked up): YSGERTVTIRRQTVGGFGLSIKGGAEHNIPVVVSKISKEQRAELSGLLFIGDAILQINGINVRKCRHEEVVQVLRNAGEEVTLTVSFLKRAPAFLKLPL

TIAM2, Q8IVF5 = biological target: T2, TIAM2, Q8IVF5
T2 sequence (Q8IVF5 885-986, limits assumed, looked up): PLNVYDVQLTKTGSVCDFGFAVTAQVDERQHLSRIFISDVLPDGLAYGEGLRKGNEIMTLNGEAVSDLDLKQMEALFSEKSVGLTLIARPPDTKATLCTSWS

MPP6, Q9NZW5 = biological target: T3, MPP6, Q9NZW5
T3 sequence (Q9NZW5 125-219, limits assumed, looked up): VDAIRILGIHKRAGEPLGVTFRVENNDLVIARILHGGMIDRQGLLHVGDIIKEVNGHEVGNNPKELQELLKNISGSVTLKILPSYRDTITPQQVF

RAPGEF6, Q8TEU7 = biological target: T4, RAPGEF6, Q8TEU7
T4 sequence (Q8TEU7 525-625, limits assumed, looked up): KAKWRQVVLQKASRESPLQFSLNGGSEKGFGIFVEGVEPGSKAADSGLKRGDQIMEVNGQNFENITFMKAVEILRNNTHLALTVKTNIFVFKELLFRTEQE

DLG5_1, Q8TDM6 = biological target: DLG5_1, Q8TDM6
Sequence of DLG5_1, Q8TDM6 (Q8TDM6 617-713): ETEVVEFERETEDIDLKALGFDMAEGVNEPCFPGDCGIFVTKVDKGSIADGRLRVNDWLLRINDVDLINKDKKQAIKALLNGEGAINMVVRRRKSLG

APBA3_1, O96018 = biological target: T5, APBA3_1, O96018
T5 sequence (O96018 389-490, limits assumed, looked up): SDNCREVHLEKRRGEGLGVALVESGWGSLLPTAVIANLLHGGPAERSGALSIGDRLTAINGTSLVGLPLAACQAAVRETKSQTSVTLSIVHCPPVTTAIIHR

LNX2_3, Q8N448 = biological target: T6, LNX2_3, Q8N448
T6 sequence (Q8N448 463-564, limits assumed, looked up): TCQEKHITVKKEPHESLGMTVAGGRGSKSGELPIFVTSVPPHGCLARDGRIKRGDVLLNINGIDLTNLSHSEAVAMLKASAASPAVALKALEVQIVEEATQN

DLG1_1, Q12959 = biological target: DLG1_1, Q12959
SNTB1, Q13884 = biological target: T7, SNTB1, Q13884
T7 sequence (Q13884 107-205, limits assumed, looked up): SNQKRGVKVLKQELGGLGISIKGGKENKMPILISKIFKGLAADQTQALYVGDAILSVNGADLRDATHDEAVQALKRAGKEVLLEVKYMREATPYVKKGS

FRMPD2_2, Q68DX3 = biological target: FRMPD2_2, Q68DX3
Sequence of FRMPD2_2, Q68DX3 (Q68DX3 944-1038): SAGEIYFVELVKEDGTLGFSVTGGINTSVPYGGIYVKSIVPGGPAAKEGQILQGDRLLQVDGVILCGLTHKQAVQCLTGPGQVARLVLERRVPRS

GRIP2_4, Q9C0E4 = biological target: GRIP2_4, Q9C0E4
Sequence of GRIP2_4, Q9C0E4 (Q9C0E4 446-548): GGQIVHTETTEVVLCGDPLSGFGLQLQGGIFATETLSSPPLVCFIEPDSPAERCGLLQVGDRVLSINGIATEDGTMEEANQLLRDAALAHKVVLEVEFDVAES

PDLIM1, O00151 = biological target: PDLIM1, O00151
Sequence of PDLIM1, O00151 (O00151 1-87): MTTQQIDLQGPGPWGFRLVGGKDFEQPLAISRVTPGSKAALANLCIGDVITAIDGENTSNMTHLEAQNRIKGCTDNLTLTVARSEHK

TJP1_3, Q07157 = biological target: TJP1_3, Q07157
Sequence of TJP1_3, Q07157 (Q07157 416-512): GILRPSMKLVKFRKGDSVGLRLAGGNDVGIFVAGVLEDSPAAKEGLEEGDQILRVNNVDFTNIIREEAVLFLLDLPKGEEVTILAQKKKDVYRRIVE

GRIP2_6, Q9C0E4 = biological target: GRIP2_6, Q9C0E4
Sequence of GRIP2_6, Q9C0E4 (Q9C0E4 648-740): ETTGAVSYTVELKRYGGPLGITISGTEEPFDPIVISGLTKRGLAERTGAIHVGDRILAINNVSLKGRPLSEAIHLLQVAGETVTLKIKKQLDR

RADIL, Q96JH8 = biological target: T8, RADIL, Q96JH8
T8 sequence (Q96JH8 971-1071, limits assumed, looked up): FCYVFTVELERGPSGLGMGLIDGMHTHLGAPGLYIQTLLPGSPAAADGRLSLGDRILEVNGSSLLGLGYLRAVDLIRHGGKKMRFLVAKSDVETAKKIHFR

Inadl_3, Q8NI35 = biological target: Inadl_3, Q8NI35
Sequence of Inadl_3, Q8NI35 (Q8NI35 359-469): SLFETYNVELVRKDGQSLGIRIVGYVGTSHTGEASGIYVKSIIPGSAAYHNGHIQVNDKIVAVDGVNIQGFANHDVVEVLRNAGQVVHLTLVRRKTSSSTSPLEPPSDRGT

GRIP1_7, Q9Y3R0 = biological target: T9, GRIP1_7, Q9Y3R0
T9 sequence (Q9Y3R0 999-1096, limits assumed, looked up): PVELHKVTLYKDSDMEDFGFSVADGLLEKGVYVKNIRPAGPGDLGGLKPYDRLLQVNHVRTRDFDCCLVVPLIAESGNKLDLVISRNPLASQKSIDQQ

PDZD2_2, O15018 = biological target: T10, PDZD2_2, O15018
T10 sequence (O15018 329-429, limits assumed, looked up): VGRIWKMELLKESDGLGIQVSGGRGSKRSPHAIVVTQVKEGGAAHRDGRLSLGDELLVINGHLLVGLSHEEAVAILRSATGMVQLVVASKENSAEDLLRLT

LIMK2, P53671 = biological target: LIMK2, P53671
Sequence of LIMK2, P53671 (P53671 143-248): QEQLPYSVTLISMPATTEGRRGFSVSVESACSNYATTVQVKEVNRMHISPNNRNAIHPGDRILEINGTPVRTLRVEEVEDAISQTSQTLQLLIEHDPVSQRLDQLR

APBA2_1, Q99767 = biological target: T11, APBA2_1, Q99767
T11 sequence (Q99767 563-664, limits assumed, looked up): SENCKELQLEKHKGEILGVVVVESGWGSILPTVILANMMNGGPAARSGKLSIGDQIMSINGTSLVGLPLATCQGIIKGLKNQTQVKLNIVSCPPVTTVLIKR

DLG4_1, P78352 = biological target: DLG4_1, P78352
Sequence of DLG4_1, P78352 (P78352 62-152): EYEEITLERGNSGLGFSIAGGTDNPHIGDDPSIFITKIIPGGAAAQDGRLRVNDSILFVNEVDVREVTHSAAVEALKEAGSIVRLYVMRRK

HTRA4, P83105 = biological target: T12, HTRA4, P83105
T12 sequence (P83105 378-476, limits assumed, looked up): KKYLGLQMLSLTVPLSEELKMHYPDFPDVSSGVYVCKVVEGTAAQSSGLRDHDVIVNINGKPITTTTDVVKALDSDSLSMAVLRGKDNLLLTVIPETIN

Inadl_5, Q8NI35 = biological target: Inadl_5, Q8NI35
Sequence of Inadl_5, Q8NI35 (Q8NI35 673-780): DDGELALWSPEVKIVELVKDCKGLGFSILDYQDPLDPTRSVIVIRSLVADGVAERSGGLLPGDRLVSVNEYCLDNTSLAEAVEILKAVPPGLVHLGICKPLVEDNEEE

GRIP2_5, Q9C0E4 = biological target: GRIP2_5, Q9C0E4
Sequence of GRIP2_5, Q9C0E4 (Q9C0E4 544-642): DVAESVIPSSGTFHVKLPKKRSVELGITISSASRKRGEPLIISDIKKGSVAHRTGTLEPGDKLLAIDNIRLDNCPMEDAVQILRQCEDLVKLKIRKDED

Inadl_2, Q8NI35 = biological target: Inadl_2, Q8NI35
Sequence of Inadl_2, Q8NI35 (Q8NI35 238-335): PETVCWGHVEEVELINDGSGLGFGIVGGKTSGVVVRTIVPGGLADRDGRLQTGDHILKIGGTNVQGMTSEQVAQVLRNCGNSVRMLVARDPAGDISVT

Measured: pKd

QGPVETESVV [SLC45A4, Q5BKX6]
5.27: PDZD2_2, O15018
3.96: Inadl_3, Q8NI35
4.19: DLG1_1, Q12959 | FRMPD2_2, Q68DX3
4.05: RADIL, Q96JH8
4.94: SNTB1, Q13884
3.97: HTRA4, P83105
3.54: Inadl_5, Q8NI35
4.75: SNTG1, Q9NSN8
4.33: DLG4_1, P78352
below the threshold: all other assays above

VKPQVSESKL [ACOT8, O14734]
3.85: SNTB1, Q13884
4.03: TIAM2, Q8IVF5
below the threshold: all other assays above

KKAPTNEFYA [SDC4, P31431]
3.94: TIAM2, Q8IVF5
3.91: MPP6, Q9NZW5
3.56: GRIP2_6, Q9C0E4
below the threshold: all other assays above

FNSYSLTGYV [CLDN2, P57739]
4.65: PDZD2_2, O15018
3.51: DLG4_1, P78352
3.6: Inadl_5, Q8NI35
3.57: Inadl_3, Q8NI35
3.94: TIAM2, Q8IVF5
3.61: SNTB1, Q13884
4.08: HTRA4, P83105
3.63: TJP1_3, Q07157
4.99: RADIL, Q96JH8
below the threshold: all other assays above
